Results as given in article PMC5415409.

Target: Growth Factor Receptor-bound 2 (GRB2), endogenous in HEK cells (human (endogenous in HEK)) (UniProt P62993)
Test: co-IP

- densitometry ratio SWELL1^Δ91/+35/GRB2 in the GRB2 immunoprecipitate: 0.07
Substance: SWELL1^Δ91/+35 mutant, transiently expressed in HEK cells (natural protein)
